# In IntAct's records for PubMed 18716626:
# B1: Shugoshin-1 (Schizosaccharomyces pombe (strain ATCC 38366 / 972)), Q9P7A0 (parent)
# chain: MNFQFINSNINNEDKLPMESLKKKFLKQNREIIKINTQLSIKIRESENEIQDLIQENFTLKSYLVKLEARFRNQSQTEDLLKNFFPEIQTIHKKISQVQSLLKIIEKKCSSDFLEANVKSQFTTCENKDSKEDYQILHNKRLEYVSFNDELKSLETGQPLYCFQDFQKKVHGPPALSEKPGKCILKDKTNAHVNKIPQDEVNYSLPQKNITIFSKELKENEFESINEGETEEEKAKTSNVCVCIPCKSAEQITDLKGQATGDSSPCDFEESQPRINGREKLRRSVKVINYAIPSLRTKLRRDFDLPSDRKRKRHPRGKA
# partner: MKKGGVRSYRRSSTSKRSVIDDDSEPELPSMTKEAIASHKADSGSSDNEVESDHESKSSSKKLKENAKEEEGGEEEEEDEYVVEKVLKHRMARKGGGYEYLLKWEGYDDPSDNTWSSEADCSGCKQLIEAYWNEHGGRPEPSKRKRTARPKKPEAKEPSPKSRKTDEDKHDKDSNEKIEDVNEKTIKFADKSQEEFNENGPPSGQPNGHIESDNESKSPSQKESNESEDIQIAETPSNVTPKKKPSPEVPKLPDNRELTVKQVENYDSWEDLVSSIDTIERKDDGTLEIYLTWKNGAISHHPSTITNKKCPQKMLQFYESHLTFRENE
# B2: Chromatin-associated protein swi6 (Schizosaccharomyces pombe (strain ATCC 38366 / 972)), P40381 (parent)
# chain: B1 partner
# partner: B1 chain
# Variants of: B1
# Conditions: with swi6_schpo swi6, P40381
row,Variant,effect of a mutation on the interaction
1,V242E,disrupting interaction strength

# Variants of: B2
# Conditions: with sgo1_schpo sgo1, Q9P7A0
row,Variant,effect of a mutation on the interaction
1,F324A,disrupting interaction strength
